Stoichiometry N data for two substances are collected here from article PMC4694137.

For test [1], the target named is AgaR2 (SSU05_0447) protein from Streptococcus suis (Streptococcus suis). Nature of the test: cross-linking; purified protein (~5 mg/mL) in 15 uL incubated with EGS cross-linker (0, 2.5, 5, 10, 20 umol/L for AgaR2; 0.1, 0.2, 0.5, 1.0, 2.5, 5, 10, 20 umol/L for AgaR1) for 1 h at room temperature; 12% SDS-PAGE, Coomassie staining.
The target of test [2] is AgaR1 (SSU05_0448) protein from Streptococcus suis (Streptococcus suis). Described as above.

By stoichiometry N is commonly meant a count of units in the complex or per binding partner. On to “AgaR2 (SSU05_0447) protein from Streptococcus suis (natural protein)”, for which the stoichiometry N in test [1] worked out at 2.

In turn, “AgaR1 (SSU05_0448) protein from Streptococcus suis (natural protein)” registered a stoichiometry N in test [2] of 2.
